# B1: TRIM25 CC-PRY/SPRY (aa 189-630) (domain or fragment, human, UniProt Q14258 189-630, looked up)
# chain: ASLSQASADLEATLRHKLTVMYSQINGASRALDDVRNRQQDVRMTANRKVEQLQQEYTEMKALLDASETTSTRKIKEEEKRVNSKFDTIYQILLKKKSEIQTLKEEIEQSLTKRDEFEFLEKASKLRGISTKPVYIPEVELNHKLIKGIHQSTIDLKNELKQCIGRLQEPTPSSGDPGEHDPASTHKSTRPVKKVSKEEKKSKKPPPVPALPSKLPTFGAPEQLVDLKQAGLEAAAKATSSHPNSTSLKAKVLETFLAKSRPELLEYYIKVILDYNTAHNKVALSECYTVASVAEMPQNYRPHPQRFTYCSQVLGLHCYKKGIHYWEVELQKNNFCGVGICYGSMNRQGPESRLGRNSASWCVEWFNTKISAWHNNVEKTLPSTKATRVGVLLNCDHGFVIFFAVADKVHLMYKFRVDFTEALYPAFWVFSAGATLSICSPK
# notes: TRIM25 coiled-coil (CC), L2 linker and PRY/SPRY domain, aa 189-630; also called TRIM25 189-630
# Assays:
# [1] = molecular target: T1, TRIM25 CC-PRY/SPRY (UniProt Q14258 189-630); experiment: filter binding; ITC and filter binding: 20 mM MES pH 6.5, 75 mM NaCl, 0.5 mM TCEP (ITC 20 C, filter binding on ice); NMR: 20 mM Na phosphate pH 6.5, 150 mM NaCl, 2 mM TCEP, 293 K; conditions: protein: recombinant, tags: His-Trx (removed), chain copies: 2, hairpin
# [2] = molecular target: T2, TRIM25 PRY/SPRY (UniProt Q14258 439-630); experiment: NMR; CSPs at site 2 only; ITC and filter binding: 20 mM MES pH 6.5, 75 mM NaCl, 0.5 mM TCEP (ITC 20 C, filter binding on ice); NMR: 20 mM Na phosphate pH 6.5, 150 mM NaCl, 2 mM TCEP, 293 K; conditions: protein: recombinant; tags: His-Trx (removed); chain copies: 3; hairpin
# [3] = molecular target: the molecule itself; experiment: NMR titration; CC-PRY/SPRY with pre-let-7 RNA added; domain-domain interaction within the construct; 1H,15N-HSQC
# [4] = molecular target: T2, TRIM25 PRY/SPRY; experiment: ITC; ITC and filter binding: 20 mM MES pH 6.5, 75 mM NaCl, 0.5 mM TCEP (ITC 20 C, filter binding on ice); NMR: 20 mM Na phosphate pH 6.5, 150 mM NaCl, 2 mM TCEP, 293 K; conditions: protein: recombinant; tags: His-Trx (removed); single strand
# [5] = molecular target: T1, TRIM25 CC-PRY/SPRY; experiment: as above; conditions: protein: recombinant; tags: His-Trx (removed); chain copies: 2; single strand
# [6] = molecular target: T1, TRIM25 CC-PRY/SPRY; experiment: ITC; second fitted site, N 0.08; ITC and filter binding: 20 mM MES pH 6.5, 75 mM NaCl, 0.5 mM TCEP (ITC 20 C, filter binding on ice); NMR: 20 mM Na phosphate pH 6.5, 150 mM NaCl, 2 mM TCEP, 293 K; conditions: protein: recombinant; tags: His-Trx (removed); chain copies: 2; hairpin
# [7] = molecular target: T3, TRIM25 CC-PRY/SPRY penta-mutant (UniProt Q14258 189-630, K283A;K285A;H505E;K508E;K602E); experiment: ITC; ITC and filter binding: 20 mM MES pH 6.5, 75 mM NaCl, 0.5 mM TCEP (ITC 20 C, filter binding on ice); NMR: 20 mM Na phosphate pH 6.5, 150 mM NaCl, 2 mM TCEP, 293 K; conditions: protein: recombinant; tags: His-Trx (removed); chain copies: 2; hairpin
# Target sequence in this assay (Q14258 189-630 K283A/K285A/H505E/K508E/K602E): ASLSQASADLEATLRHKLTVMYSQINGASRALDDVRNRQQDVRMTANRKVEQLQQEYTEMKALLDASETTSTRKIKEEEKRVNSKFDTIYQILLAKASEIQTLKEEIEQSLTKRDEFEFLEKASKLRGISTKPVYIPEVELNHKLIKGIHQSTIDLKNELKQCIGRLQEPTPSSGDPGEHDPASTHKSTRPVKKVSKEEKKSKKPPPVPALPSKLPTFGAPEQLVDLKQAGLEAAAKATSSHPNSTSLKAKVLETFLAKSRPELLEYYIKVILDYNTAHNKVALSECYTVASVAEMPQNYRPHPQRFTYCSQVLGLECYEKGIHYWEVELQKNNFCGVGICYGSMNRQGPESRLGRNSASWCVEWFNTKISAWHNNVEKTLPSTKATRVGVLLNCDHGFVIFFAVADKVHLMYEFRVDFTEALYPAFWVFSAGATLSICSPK
# [8] = molecular target: T1, TRIM25 CC-PRY/SPRY; experiment: ITC; first of two fitted sites (second 106 nM); ITC and filter binding: 20 mM MES pH 6.5, 75 mM NaCl, 0.5 mM TCEP (ITC 20 C, filter binding on ice); NMR: 20 mM Na phosphate pH 6.5, 150 mM NaCl, 2 mM TCEP, 293 K; conditions: protein: recombinant; tags: His-Trx (removed); chain copies: 2; hairpin
# [9] = molecular target: T1, TRIM25 CC-PRY/SPRY; experiment: ITC; first of two fitted sites; ITC and filter binding: 20 mM MES pH 6.5, 75 mM NaCl, 0.5 mM TCEP (ITC 20 C, filter binding on ice); NMR: 20 mM Na phosphate pH 6.5, 150 mM NaCl, 2 mM TCEP, 293 K; conditions: protein: recombinant; tags: His-Trx (removed); chain copies: 2; hairpin
# [10] = molecular target: T3, TRIM25 CC-PRY/SPRY penta-mutant; experiment: ITC; no binding detected; ITC and filter binding: 20 mM MES pH 6.5, 75 mM NaCl, 0.5 mM TCEP (ITC 20 C, filter binding on ice); NMR: 20 mM Na phosphate pH 6.5, 150 mM NaCl, 2 mM TCEP, 293 K; conditions: protein: recombinant; tags: His-Trx (removed); chain copies: 2; hairpin
# [11] = molecular target: T1, TRIM25 CC-PRY/SPRY; experiment: ITC; second fitted site, N 0.10; ITC and filter binding: 20 mM MES pH 6.5, 75 mM NaCl, 0.5 mM TCEP (ITC 20 C, filter binding on ice); NMR: 20 mM Na phosphate pH 6.5, 150 mM NaCl, 2 mM TCEP, 293 K; conditions: protein: recombinant; tags: His-Trx (removed); chain copies: 2; hairpin
binder,measurement,setting,value
"GUGUAAAAUGAUGGAAUAUAUACUAUCGUUUUACGC (structured_RNA) [roX2 stem-loop (SL7 in text, SL6 in Table 2)]",Kd,[1]; label: 5' 32P,0.0181 ± 0.0022 µM
GUAUAGUUCAACUAUAC (structured_RNA) [pre-let-7 stem (stem-fusion)],binding result,[2],binds
B1,binding result,[3],binds
UAAAAGGAGAU (ssRNA) [pre-let-7 loop],Kd,[4],42 ± 53 µM
same,Kd,[5],4.1 ± 1.9 µM
GCAGGUCGGAUUAAGCCAUAGUACGGGAAAAACUAUGCUACCUG (structured_RNA) [DENV-SL],Kd,[6],0.106 ± 0.035 µM
same,Kd,[7],0.363 ± 0.084 µM
same,Kd,[1],0.00163 ± 0.00038 µM
same,Kd,[8],0.0152 ± 0.003 µM
UUUUAUCUGAGUUGGAGGUGAAG (structured_RNA) [Lnczc3h7a-SL],Kd,[9],0.486 ± 0.077 µM
same,binding result,[10],no binding
same,Kd,[11],8.9 ± 4.5 µM

# Reference: paper doi:10.1101/2020.05.04.070177, “Mechanistic insights into RNA binding and RNA-regulated RIG-I ubiquitination by TRIM25” (bioRxiv, 2020)
